Experimental data as given in patent publication US20200261603A1 (published 2020).
Residue numbers refer to the chain shown, from its start.

B1: P10-2 Fab (Fab, V domains shown)
VH: QVQLVQSGAEVKKPGASVKVSCKASGYTFTNYGLSWVRQAPGQGLEWMGENHPGSGIIYHNEKFRGRVTLTADRSTSTAYMELSSLRSEDTAVYYCARSSGTRGFDYWGQGTLVTVSS
VL: DVVMTQTPLSLSVTPGQPASISCRSSQSIVHSNGNTYLEWYLQKPGQSPQLLIYRVSNRFSGVPDRFSGSGSGTDFTLKISRVEAEDVGVYYCFQGSHGPWTFGQGTKLEIKR
modifications: heavy chain N-terminal glutamine was modified into pyroglutamic acid in a great majority of purified antibodies
B2: P10-2 Fab DFO (Fab, V domains shown)
VH: B1 VH
VL: B1 VL
modifications: p-SCN-Bn-deferoxamine on Lys of the Fab fragment; number and positions not stated; p-SCN-Bn-deferoxamine on Lys of the Fab fragment; number and positions not stated; N-terminal glutamine largely pyroglutamic acid
B3: P10-1 Fab (Fab, V domains shown)
VH: B1 VH with D106A
VL: B1 VL
B4: P10-1 Fab Dye (Fab, V domains shown)
VH: B1 VH with D106A
VL: B1 VL
modifications: IRDye800CW (NHS ester) on Lys of the Fab fragment; number and positions not stated
B5: P10-2 Fab Dye (Fab, V domains shown)
VH: B1 VH
VL: B1 VL
modifications: IRDye800CW (NHS ester) on Lys of the Fab fragment; number and positions not stated; IRDye800CW (NHS ester) on Lys of the Fab fragment; number and positions not stated; N-terminal glutamine largely pyroglutamic acid

These binders were tested against T1, human cancer-specific MUC1 (human, UniProt P15941 24-1255, cancer-specific incomplete O-glycosylation (T, Tn, 2,3ST) of threonine at position 9 of the 20-amino acid tandem repeat … (SEQ ID NO: 15), as the background describes it) (assay: Cell ELISA).
In the case of B1, the Kd is reported as 370 pM. B2 was tested, and the Kd was 360 pM.

Target: T1, human cancer-specific MUC1
Test: Cell ELISA
Remark: another data set of the same source
B3 showed a Kd of 350 pM. B1 gave a Kd of 290 pM. B4 showed a Kd of 660 pM. Work on B5 yielded a Kd of 490 pM.
